Test results from patent US6022720A, “Bax protein channel formation” (Glaxo Wellcome Inc., priority 1997, dated 2000).

What was measured:
[1] = tested on: sympathetic neurons; experiment: Lytic effects of added protein on sympathetic neurons; format: cell-based; settings: coaddition of control protein with 10 μM Bax
Protocol: The effect of soluble recombinant Bax and Bcl-2 on the integrity of sympathetic neurons and sheep erythrocytes was tested. Ten μM Bax protein was added to serum-free medium of sympathetic neurons. […] (see FIG. 7B).

[2] = target: T1, Bax (Homo sapiens, UniProt Q07812); experiment: Inhibition of Bax-induced release of carboxyfluorescein from liposomes; format: biochemical; settings: control protein preincubated with liposomes before Bax 70 nm
T1 construct: GST (pGEX2T, thrombin site) (N, cleaved yes); made in house; host or cells: E. coli PR745
Protocol: To determine whether Bax was a pore-forming protein, a study was undertaken to determine whether Bax could trigger the release of liposome-encapsulated carboxyfluorescein. […] The liposomes were dialyzed for 24 hours against PBS and diluted to 8 ml. For analysis at acidic pH, fluorescence of released dye was measured after adjustment of pH to 7.5 by addition of 1 M Tris-HCl pH 7.5.
In each test 20 μl of liposomes containing 20 mM carboxyfluorescein was diluted in 1 ml of PBS (pH 7.5) and 5 μl of purified protein was added at the time indicated by the arrow. Incubation was performed at room temperature. Final Bax concentrations are indicated for each curve (see FIG. 8A). Bcl-2 was tested at 70 nM. Each curve of FIG. 8A was normalized by subtraction of the initial fluorescence value obtained at time 0.
Liposomes (20 μl in 1 ml PBS) were first incubated (15 min at room temperature) with Bcl-2 or with a control protein (stathmin) before addition of Bax (70 nm) to the liposome solution.
After addition of the compound, 80 nM Bax was added to the liposome suspension and the fluorescence measured with a spectrofluorimeter.

T1 sequence (Q07812 with tags, fused parts or gaps limits assumed): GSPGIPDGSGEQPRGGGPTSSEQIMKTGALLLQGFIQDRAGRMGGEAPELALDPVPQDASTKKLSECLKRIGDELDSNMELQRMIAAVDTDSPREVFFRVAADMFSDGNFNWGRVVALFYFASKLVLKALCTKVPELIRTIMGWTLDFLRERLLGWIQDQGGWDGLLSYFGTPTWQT

Molecule	effect on Bax-induced neuronal lysis upon coaddition [1]	effect on Bax function (carboxyfluorescein efflux) [2]
ERK2: control protein [reference compound]	no effect	–
stathmin: unrelated control protein (protein, UniProt P16949 2-149, looked up) Stathmin: ASSDIQVKELEKRASGQAFELILSPRSKESVPEFPLSPPKKKDLSLEEIQKKLEAAEERRKSHEAEVLKQLAEKREHEKEVLQKAIEENNNFSKMAEEKLTHKMEANKENREAQMAAKLERLREKDKHIEEVRKNKESKDPADETEAD	no effect	no adverse effect
